From the supplement of paper PMC10724198
± gives the standard deviation of the averaged measurements.

Test system: Saccharomyces cerevisiae
Assay: protein stability index of tFT-peptide fusion (C-terminal peptide) (PSI (0-1 scale)); higher = more stable (slower turnover)
Conditions: genetic background: wild type; temperature: 30 C
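Also: PSI is a weighted mean of sequencing reads over stability bins, variants kept only with over 10 reads, mCherry proximal and sfGFP distal, peptide attached via GGGS linker.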

Sequence | protein stability index
LHAGHSNSVLAF | 0.601 ± 0.0075
LHCKDWGHESRD | 0.6838 ± 0.0057
LHHLASPSPPTP | 0.797 ± 0.015
LHMVSCFLCSLW | 0.564 ± 0.018
LHPPTHPQLPSS | 0.7214 ± 0.0059
LHRRIPFPTQAL | 0.567 ± 0.017
LHSIPLNPYLIA | 0.712 ± 0.16
LHSRKSDFSVIA | 0.656 ± 0.046
LIDYGLDVSLSL | 0.703 ± 0.015
LIFPPLPPLPPR | 0.754 ± 0.01
LIISDVTGFSHL | 0.6576 ± 0.0029
LIKKSFYMKIIK | 0.59 ± 0.057
LIPAASLSPLAC | 0.562 ± 0.013
LIPIRGESTFRF | 0.779 ± 0.11
LIPLPPPPLPPP | 0.623 ± 0.09
LIPTIRRKHRAT | 0.625 ± 0.014
LIRVSPDVNITA | 0.622 ± 0.066
LIYKRQPAFRCG | 0.632 ± 0.023
LKAACAKRGVLS | 0.679 ± 0.085
LKFRETHIRNHP | 0.701 ± 0.05
LKPMSRKSLRSM | 0.715 ± 0.022
LKRPDVTKKKSI | 0.62 ± 0.077
LLAVLSPAAPLP | 0.696 ± 0.058
LLCFRLFPALTP | 0.6228 ± 0.0057
LLCHAGRTPRPP | 0.646 ± 0.013
LLCPSPPSDIPP | 0.661 ± 0.016

Sequence | protein stability index
LLDGASALIFGG | 0.617 ± 0.057
LLDSLCEKTFRS | 0.677 ± 0.032
LLESTAHGKGIR | 0.683 ± 0.022
LLFPFSLHLSPP | 0.765 ± 0.066
LLFSPTHEPRIW | 0.734 ± 0.075
LLFSPTRVFLRY | 0.49 ± 0.053
LLFSSPPARMCP | 0.786 ± 0.1
LLGHSTPAHVFL | 0.7129 ± 0.0031
LLGKVAYFFMFG | 0.631 ± 0.025
LLGVRLGVLSFA | 0.58 ± 0.01
LLHEAFSSPLSS | 0.7164 ± 0.0068
LLHHSSVSFFSL | 0.71 ± 0.016
LLHWGRWRRGRR | 0.722 ± 0.046
LLIYIPLFEWAR | 0.526 ± 0.028
LLKQDNSVLSEL | 0.63 ± 0.07
LLLARWASFIMS | 0.685 ± 0.01
LLLASSHAPYLH | 0.77 ± 0.021
LLLLDLWLPSVL | 0.76 ± 0.059
LLLLNSFFISPP | 0.742 ± 0.027
LLLPSTPSPLLY | 0.609 ± 0.014
LLPFCPPCLRSL | 0.648 ± 0.018
LLPFDTYPPTSP | 0.695 ± 0.036
LLPLAPSPPPPH | 0.71 ± 0.042
LLPPPPFSAPPS | 0.671 ± 0.012
LLPPSHRASPRQ | 0.694 ± 0.027
LLPQSPRPLVHS | 0.774 ± 0.065

Sequence | protein stability index
LLPSLLRPQPPA | 0.699 ± 0.034
LLPSPLSLTFPL | 0.616 ± 0.013
LLPVFFISYPSS | 0.6545 ± 0.0053
LLQLLGGFVFSA | 0.67 ± 0.018
LLRLVFHLETSS | 0.547 ± 0.081
LLRVLVTFDAFD | 0.576 ± 0.021
LLRWCFDLWWVL | 0.532 ± 0.051
LLSFLLFFVPGS | 0.576 ± 0.0013
LLSPPPHPPPLI | 0.6648 ± 0.0038
LLSPQPPSSPLP | 0.69 ± 0.015
LLSSPYPPDTFT | 0.6427 ± 0.0012
LLTGPYRCIPLV | 0.608 ± 0.039
LLTSRLSTPFLI | 0.53 ± 0.012
LLVGVGGAGGVG | 0.603 ± 0.012
LLVLPLVFSCSS | 0.53 ± 0.0078
LLVWPLDQTFRL | 0.698 ± 0.019
LLWVSAPHRYVR | 0.642 ± 0.036
LLYALLLSLFRY | 0.595 ± 0.02
LMSGFFCGLLYA | 0.6181 ± 0.0029
LMYGSVGVRGGE | 0.76 ± 0.064
LNCRCMLSRHCW | 0.666 ± 0.032
LNSCLIVDEPDI | 0.8026 ± 0.0048
LNTVNGRSSTAK | 0.665 ± 0.019
LPACPHPPPLPD | 0.6594 ± 0.0047
LPAHLLPPSSPS | 0.741 ± 0.03
LPAHPPAAPGAP | 0.692 ± 0.032

Sequence | protein stability index
LPAPPPPPPSPL | 0.71 ± 0.074
LPAPSPAVPSPP | 0.668 ± 0.033
LPAPSPSPHPPA | 0.689 ± 0.026
LPCGRGQLVGSQ | 0.677 ± 0.032
LPCTTPLLFTPV | 0.706 ± 0.21
LPDLSPIRRCPL | 0.694 ± 0.04
LPERASQARGRP | 0.694 ± 0.17
LPFRLARLSQEG | 0.849 ± 0.016
LPGGRRPSQCPA | 0.645 ± 0.01
LPILPQHQPTTD | 0.674 ± 0.014
LPKARPRTNPPP | 0.712 ± 0.15
LPKSRIGPILNG | 0.743 ± 0.12
LPLALSAPPAQP | 0.683 ± 0.042
LPLAMTTIGISL | 0.675 ± 0.011
LPLCSPPAPPSS | 0.666 ± 0.026
LPLIRQLPNPPP | 0.648 ± 0.031
LPLLALPLALHP | 0.653 ± 0.0077
LPLMVPIPLLLP | 0.648 ± 0.024
LPLPIPPFPCPP | 0.686 ± 0.017
LPLPSTYHHISK | 0.68 ± 0.063
LPLWQHPTKPVH | 0.64238 ± 8.1e-05
LPLYYPPGTREL | 0.708 ± 0.027
LPPAIPSTPPTP | 0.756 ± 0.0087
LPPASHLPYLVL | 0.717 ± 0.019
LPPLAPPPPPLP | 0.688 ± 0.026
LPPLCLPPPAHP | 0.733 ± 0.026

Sequence | protein stability index
LPPLPPPPPLPL | 0.688 ± 0.11
LPPLSLSPPLPP | 0.689 ± 0.049
LPPLTSPSIVRG | 0.749 ± 0.04
LPPPFPSPPRPP | 0.617 ± 0.14
LPPPLPPRPSPP | 0.728 ± 0.089
LPPPPAPSSAPL | 0.735 ± 0.14
LPPPPLPPPVFP | 0.74 ± 0.018
LPPPPPHRTGDC | 0.5859 ± 0.0028
LPPPPPLPSSPL | 0.685 ± 0.018
LPPPPRPPPPPP | 0.663 ± 0.021
LPPPPSASPPRP | 0.794 ± 0.06
LPPPPTAPPPSR | 0.719 ± 0.058
LPPPRPASPGSP | 0.642 ± 0.051
LPPPRPGLPFTF | 0.704 ± 0.057
LPPPRSPPPLSA | 0.622 ± 0.057
LPPPSLPGPSAS | 0.786 ± 0.059
LPPPYPRPPPFR | 0.68 ± 0.005
LPPRPLPPPSRT | 0.7 ± 0.076
LPPRPPTHSPPP | 0.722 ± 0.011
LPPRTHSPLSSP | 0.636 ± 0.11
LPPSPLMTRTCA | 0.6343 ± 0.0041
LPPSSLTLSPSS | 0.675 ± 0.045
LPPSSSPCPLPS | 0.7304 ± 0.0053
LPRLPPPPHPCP | 0.741 ± 0.013
LPRLTPARPRHH | 0.7 ± 0.1
LPRPPAPPMRYM | 0.70928 ± 9.3e-05

Sequence | protein stability index
LPRSPPCCHVND | 0.628 ± 0.02
LPRVSMTPTRVG | 0.6535 ± 0.0029
LPSHRSPITSFL | 0.668 ± 0.14
LPSLHPPPSPQP | 0.777 ± 0.08
LPSPHPPPPPLS | 0.673 ± 0.13
LPSSFLPVPAPP | 0.6976 ± 0.00082
LPTLPPPTPYAL | 0.652 ± 0.044
LPTPVRRPPSPP | 0.71 ± 0.028
LPTSPMSCHTLT | 0.76 ± 0.088
LPVSISIGNVGR | 0.627 ± 0.025
LPWLTASRLVMR | 0.714 ± 0.043
LQATFRRHLNLV | 0.655 ± 0.032
LQFGHGDFRSTV | 0.713 ± 0.093
LQRAPKLLPSSS | 0.683 ± 0.03
LQRHSSQQTTSA | 0.658 ± 0.025
LQVTLALSAALP | 0.802 ± 0.079
LRAVRDSLMSQC | 0.681 ± 0.033
LRCNAQSMICLT | 0.633 ± 0.081
LRCPLMYDIFYN | 0.726 ± 0.074
LRCRLFIWDGVK | 0.809 ± 0.038
LRDYLLWRECTL | 0.692 ± 0.033
LRFLLLRFILRS | 0.472 ± 0.048
LRGCGSGAGWFL | 0.667 ± 0.028
LRGILGTLINGV | 0.609 ± 0.097
LRGLRALRGDLT | 0.654 ± 0.05
LRGVAIAARYPR | 0.766 ± 0.02

Sequence | protein stability index
LRIQKIVSGALM | 0.707 ± 0.01
LRLLCVSGSSVR | 0.638 ± 0.065
LRLSCGDRFRVG | 0.557 ± 0.019
LRLTTNTGCTIS | 0.611 ± 0.023
LRPKESQEYIHR | 0.652 ± 0.079
LRPLQPCGLIQC | 0.52 ± 0.022
LRQKKIELPIEP | 0.687 ± 0.02
LRRPAFCAFTST | 0.715 ± 0.024
LRRSPPNPLLKA | 0.634 ± 0.021
LRRSRGTVWRWY | 0.5535 ± 0.0032
LRSIAVLPPSPF | 0.695 ± 0.039
LRSPPSLLPLSL | 0.7056 ± 0.0033
LRSQDFKGHLRT | 0.6606 ± 0.0029
LRSRTPPSPHFP | 0.626 ± 0.0069
LRTLVARWIVGQ | 0.515 ± 0.021
LRVFKVCSGISG | 0.642 ± 0.045
LRVGMSSASVFQ | 0.733 ± 0.03
LRVNGIVTVSGF | 0.749 ± 0.13
LSAVHYNRAVFA | 0.5141 ± 0.0049
LSAVRFGRVWGG | 0.6959 ± 0.0043
LSCWLGCVALGW | 0.718 ± 0.13
LSEVFLSMNVVL | 0.676 ± 0.06
LSFLYCSDNKVA | 0.6562 ± 0.006
LSGLQGPGVSCC | 0.642 ± 0.021
LSHLILPPSSPS | 0.677 ± 0.013
LSIFFCRCFSSF | 0.59 ± 0.021

Sequence | protein stability index
LSIGGDLLFLRE | 0.716 ± 0.067
LSKASNTLVDSD | 0.755 ± 0.058
LSLFMAAREVFP | 0.664 ± 0.018
LSLGSSATLTFQ | 0.698 ± 0.03
LSLLPPLCFPSH | 0.8215 ± 0.0043
LSLTCLSSPPPA | 0.654 ± 0.034
LSLVDFSTLWFF | 0.611 ± 0.08
LSPAAPTHAYAA | 0.72 ± 0.1
LSPALSFVLTIW | 0.497 ± 0.011
LSPFGTLLNAPP | 0.782 ± 0.075
LSPGQVLPWGVL | 0.643 ± 0.069
LSPLPPPAGHLP | 0.646 ± 0.096
LSPPPLSPPSHP | 0.723 ± 0.0092
LSQFQEPPFYLF | 0.708 ± 0.044
LSQISTQRPNQV | 0.694 ± 0.06
LSRHSRSILPSL | 0.726 ± 0.056
LSRSTSYILIII | 0.515 ± 0.039
LSRWGKTKGKKW | 0.62 ± 0.014
LSSARPLAGVHT | 0.675 ± 0.03
LSSCPPPALRLP | 0.715 ± 0.013
